Experiments:
[1] = Solubility of the dried iron (III) casein N-acetyl-L-aspartylated complex; format: physicochemical
Method: (§1) The moist pure product obtained in the previous stage is dried under vacuum, at a temperature increasing from 60° C. to 70° C., for an overall period of 24 hours. After the desiccation process, 6.5 g of pure iron (III) casein N-acetyl-L-aspartylated complex are obtained, with a water content <5 wt % (Karl Fisher), having the following chemical and physicochemical characteristics:
as §1, with “6.6” for “6.5”, “casein:” for “casein”, “content<5” for “content <5”
as §1, with “6.4” for “6.5”, “content<5” for “content <5”, “characteristics: […]” for “characteristics:”

[2] = test system: patients with iron deficiency anaemia; conditions: cited from earlier work
[3] = test system: rats; conditions: complex containing 5% iron; cited from earlier work
[4] = test system: dogs; conditions: complex containing 5% iron; cited from earlier work

## ferro-N-acetyl-L-aspartylated casein
[1]
  Solubility at alkaline pH values: completely soluble at alkaline pH values

## iron (III) casein N-acetyl-L-aspartylated complex [Example 3]
[1]
  Solubility: Soluble in NaOH pH = 8

## iron (III) casein: N-acetyl-L-aspartylated complex [Example 2]
[1]
  Solubility: Soluble in NaOH pH = 8

## iron-acetyl-aspartylated casein [Fe-ASP]
[2]; controlled clinical trials, compared with iron protein succinylate (IPS)
  Changes in clinical and haematological profiles: virtually identical to those seen with iron protein succinylate (IPS)
[2]; human, in vivo
  Safety: No safety considerations were raised
[2]; open clinical trials, all categories of patients with iron deficiency anaemia
  Clinical and haematological parameters after treatment: highly significant improvements

## iron-protein succinylate [iron succinyl casein complex]
[3]
  Gastrointestinal tolerability: better gastrointestinal tolerability
[4]
  Gastrointestinal tolerability: better gastrointestinal tolerability

Source: US20170340747A1, “PROCESS FOR PRODUCING IRON (III) CASEIN N-ACETYL-ASPARTYLATED COMPLEXES AND USE THEREOF IN PHARMACEUTICAL COMPOSITIONS” (priority 2014, published 2017)
